# Measured values: article PMC3184076 (2011)
# B1: CAP206-CH12 recombinant human monoclonal antibody (antibody, V domains shown)
# VH: QVQLVQSGAEVKKPGSSVKLSCKASGGTFGSYSVTWVRQAPGQTFEWVGRIVPWVGVPNYAPKFQGRVTITADKSSTVYMELTSLRFEDTAVYYCATAYEASGLSYYYYMDDWGKGTTVTVSS
# VL: EIVLTQSPGTLSLSPGERATLSCRASQSVTSSYLAWFRHKPGQAPRLLIYGASYRGTGIPDRISGSGSGTDFTLTISRLEPEDFAVYYCQHYGGSPGMYTFGQGTRLEIK
# Molecular target: MPR.03 biotinylated peptide (HIV-1, biotin on the C-terminus)
# Assay: SPR
binder,measurement,value
B1,koff,0.00012 s⁻¹
